Source: article doi:10.1101/2022.08.25.505150 (bioRxiv, 2022)

Tests used:
[1] = target: 6His-PilC (Streptococcus sanguinis 2908); test: ITC
[2] = target: 6His-PilC (Streptococcus sanguinis 2908); test: SEC-MALS
SEC-MALS = target: the molecule itself; test: SEC-MALS

PilA_(T95A) (from UniProt A0A0B7GNW3 33-164) (domain or fragment)
% of the wild-type binding (KD ratio to the WT) [1]: 38.3%

6His-PilA (from UniProt A0A0B7GNW3 33-164) (domain or fragment)
Kd [1]: 23.8 nM
stoichiometry N [2]: 1

B1: 6His-PilA (domain or fragment, Streptococcus sanguinis 2908, UniProt A0A0B7GNW3 33-164, looked up)
chain: DTGQSQTQRMYNYLKAKYTATSGTQLAWGAYLDPVDGNPSSVYAEFDERAHNVDPSTEPIKSTHTFKDGSVAEIEMNGQLVDGLTGPENYNITIKSKSKLAGSNDYYEHIVTFNFDTKGIRSEEGHLRSAQK
stoichiometry N (SEC-MALS): 2
